{"source": "paper PMC8887137", "tested_on": "NSP12 (RNA-dependent RNA polymerase) (SARS-CoV-2)", "experiment": "filter binding", "conditions": "20 mM Tris, 200 mM KCl, room temperature, 1 h; pH not stated", "note": "pKd: −log10 of the molar value.", "data": [{"substance": "NSP12 eCLIP peak RNA, region 7431-7555 (hairpin)", "values": [{"measurement": "pKd", "result": 7.77}]}]}
